B1: CD33 BRIDGE variant B30 (Fab)
light: DFPGHNYTTRNILPGLNITSTFHKTSGSGKGGGGSEPKSSDKTHTGSDIQMTQSPSSLSASVGDRVTITCRASESVDNYGISFMNWFQQKPGKAPKLLIYAASNQGSGVPSRFSGSGSGTDFTLTISSLQPDDFATYYCQQSKEVPWTFGQGTKVEIKRTVAAPSVFIFPPSDEQLKSGTASVVCLLNNFYPREAKVQWKVDNALQSGNSQESVTEQDSKDSTYSLSSTLTLSKADYEKHKVYACEVTHQGLSSPVTKSFNRGECHHHHHH
heavy: QVQLVQSGAEVKKPGSSVKVSCKASGYTFTDYNMHWVRQAPGQGLEWIGYIYPYNGGTGYNQKFKSKATITADESTNTAYMELSSLRSEDTAVYYCARGRPAMDYWGQGTLVTVSSASTKGPSVFPLAPSSKSTSGGTAALGCLVKDYFPEPVTVSWNSGALTSGVHTFPAVLQSSGLYSLSSVVTVPSSSLGTQTYICNVNHKPSNTKVDKKVEPKSCHHHHHH
notes: Lintuzumab-based Fab bridging molecule
B2: CD33 BRIDGE variant B32 (Fab)
light: DFPGHNYTTRNILPGLNITSGSEPKSSDKTHTGGGGSDIQMTQSPSSLSASVGDRVTITCRASESVDNYGISFMNWFQQKPGKAPKLLIYAASNQGSGVPSRFSGSGSGTDFTLTISSLQPDDFATYYCQQSKEVPWTFGQGTKVEIKRTVAAPSVFIFPPSDEQLKSGTASVVCLLNNFYPREAKVQWKVDNALQSGNSQESVTEQDSKDSTYSLSSTLTLSKADYEKHKVYACEVTHQGLSSPVTKSFNRGECHHHHHH
heavy: QVQLVQSGAEVKKPGSSVKVSCKASGYTFTDYNMHWVRQAPGQGLEWIGYIYPYNGGTGYNQKFKSKATITADESTNTAYMELSSLRSEDTAVYYCARGRPAMDYWGQGTLVTVSSASTKGPSVFPLAPSSKSTSGGTAALGCLVKDYFPEPVTVSWNSGALTSGVHTFPAVLQSSGLYSLSSVVTVPSSSLGTQTYICNVNHKPSNTKVDKKVEPKSCHHHHHH
notes: as for B1
B3: CD33 BRIDGE variant B36 (Fab)
light: DFPGHNYTTRNILPGLNITSTFHKTSGSGKGGGGSEPKSSDKTHTGGGGSDIQMTQSPSSLSASVGDRVTITCRASESVDNYGISFMNWFQQKPGKAPKLLIYAASNQGSGVPSRFSGSGSGTDFTLTISSLQPDDFATYYCQQSKEVPWTFGQGTKVEIKRTVAAPSVFIFPPSDEQLKSGTASVVCLLNNFYPREAKVQWKVDNALQSGNSQESVTEQDSKDSTYSLSSTLTLSKADYEKHKVYACEVTHQGLSSPVTKSFNRGECHHHHHH
heavy: QVQLVQSGAEVKKPGSSVKVSCKASGYTFTDYNMHWVRQAPGQGLEWIGYIYPYNGGTGYNQKFKSKATITADESTNTAYMELSSLRSEDTAVYYCARGRPAMDYWGQGTLVTVSSASTKGPSVFPLAPSSKSTSGGTAALGCLVKDYFPEPVTVSWNSGALTSGVHTFPAVLQSSGLYSLSSVVTVPSSSLGTQTYICNVNHKPSNTKVDKKVEPKSCHHHHHH
notes: as for B1
B4: CD33 BRIDGE variant B33 (Fab)
light: DFPGHNYTTRNILPGLNITSGGGGSEPKSSDKTHTGGGGSDIQMTQSPSSLSASVGDRVTITCRASESVDNYGISFMNWFQQKPGKAPKLLIYAASNQGSGVPSRFSGSGSGTDFTLTISSLQPDDFATYYCQQSKEVPWTFGQGTKVEIKRTVAAPSVFIFPPSDEQLKSGTASVVCLLNNFYPREAKVQWKVDNALQSGNSQESVTEQDSKDSTYSLSSTLTLSKADYEKHKVYACEVTHQGLSSPVTKSFNRGECHHHHHH
heavy: QVQLVQSGAEVKKPGSSVKVSCKASGYTFTDYNMHWVRQAPGQGLEWIGYIYPYNGGTGYNQKFKSKATITADESTNTAYMELSSLRSEDTAVYYCARGRPAMDYWGQGTLVTVSSASTKGPSVFPLAPSSKSTSGGTAALGCLVKDYFPEPVTVSWNSGALTSGVHTFPAVLQSSGLYSLSSVVTVPSSSLGTQTYICNVNHKPSNTKVDKKVEPKSCHHHHHH
notes: as for B1
B5: CD33 BRIDGE variant B34 (Fab)
light: DFPGHNYTTRNILPGLNITSTFHKTSGSGKEPKSSDKTHTGGGGSDIQMTQSPSSLSASVGDRVTITCRASESVDNYGISFMNWFQQKPGKAPKLLIYAASNQGSGVPSRFSGSGSGTDFTLTISSLQPDDFATYYCQQSKEVPWTFGQGTKVEIKRTVAAPSVFIFPPSDEQLKSGTASVVCLLNNFYPREAKVQWKVDNALQSGNSQESVTEQDSKDSTYSLSSTLTLSKADYEKHKVYACEVTHQGLSSPVTKSFNRGECHHHHHH
heavy: QVQLVQSGAEVKKPGSSVKVSCKASGYTFTDYNMHWVRQAPGQGLEWIGYIYPYNGGTGYNQKFKSKATITADESTNTAYMELSSLRSEDTAVYYCARGRPAMDYWGQGTLVTVSSASTKGPSVFPLAPSSKSTSGGTAALGCLVKDYFPEPVTVSWNSGALTSGVHTFPAVLQSSGLYSLSSVVTVPSSSLGTQTYICNVNHKPSNTKVDKKVEPKSCHHHHHH
notes: as for B1
B6: CD33 BRIDGE variant B35 (Fab)
light: DFPGHNYTTRNILPGLNITSTFHKTSGSGKGSEPKSSDKTHTGGGGSDIQMTQSPSSLSASVGDRVTITCRASESVDNYGISFMNWFQQKPGKAPKLLIYAASNQGSGVPSRFSGSGSGTDFTLTISSLQPDDFATYYCQQSKEVPWTFGQGTKVEIKRTVAAPSVFIFPPSDEQLKSGTASVVCLLNNFYPREAKVQWKVDNALQSGNSQESVTEQDSKDSTYSLSSTLTLSKADYEKHKVYACEVTHQGLSSPVTKSFNRGECHHHHHH
heavy: QVQLVQSGAEVKKPGSSVKVSCKASGYTFTDYNMHWVRQAPGQGLEWIGYIYPYNGGTGYNQKFKSKATITADESTNTAYMELSSLRSEDTAVYYCARGRPAMDYWGQGTLVTVSSASTKGPSVFPLAPSSKSTSGGTAALGCLVKDYFPEPVTVSWNSGALTSGVHTFPAVLQSSGLYSLSSVVTVPSSSLGTQTYICNVNHKPSNTKVDKKVEPKSCHHHHHH
notes: as for B1
B7: CD33 BRIDGE variant B31 (Fab)
light: DFPGHNYTTRNILPGLNITSEPKSSDKTHTGGGGSDIQMTQSPSSLSASVGDRVTITCRASESVDNYGISFMNWFQQKPGKAPKLLIYAASNQGSGVPSRFSGSGSGTDFTLTISSLQPDDFATYYCQQSKEVPWTFGQGTKVEIKRTVAAPSVFIFPPSDEQLKSGTASVVCLLNNFYPREAKVQWKVDNALQSGNSQESVTEQDSKDSTYSLSSTLTLSKADYEKHKVYACEVTHQGLSSPVTKSFNRGECHHHHHH
heavy: QVQLVQSGAEVKKPGSSVKVSCKASGYTFTDYNMHWVRQAPGQGLEWIGYIYPYNGGTGYNQKFKSKATITADESTNTAYMELSSLRSEDTAVYYCARGRPAMDYWGQGTLVTVSSASTKGPSVFPLAPSSKSTSGGTAALGCLVKDYFPEPVTVSWNSGALTSGVHTFPAVLQSSGLYSLSSVVTVPSSSLGTQTYICNVNHKPSNTKVDKKVEPKSCHHHHHH
notes: as for B1

Experiments:
[1] = target: T1, nfP2X7 CAR 1; assay: flow cytometry, nfP2X7 CAR T cells (EGFR+), anti-His-FITC detection
T1 construct: Expressed on T cells with truncated EGFR as marker gene; also called anti-nfP2X7 receptor CAR 1; nfP2X7 targeted CAR on EGFR+ T cells

[2] = target: T1, nfP2X7 CAR 1; assay: flow cytometry, CAR T cells, anti-His-FITC, EGFR+ over EGFR- cells
Method in brief: (§1)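 CAR T cells incubated with BRiDGE variants at saturating concentrations; bound BRiDGE detected with anti-His-FITC by flow cytometry. EGFR marks CAR expression. Value is median fluorescence intensity on EGFR+ (CAR+) cells divided by that on EGFR− (CAR−) cells.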

[3] = target: T2, CD33 (UniProt P20138 18-364, limits assumed); assay: flow cytometry, MOLM-13 cells, anti-His-FITC detection
T2 construct: whole, on cells; also called Siglec-3; CD33 on MOLM-13 cells
Experimental: (§2) MOLM-13 cells were incubated with different CD33 BRIDGE variants at saturating concentrations. […] The MFI intensity correlates with the number of secondary antibodies bound to the CD33 BRIDGE variants that are only detected if they are bound to the MOLM-13 cells. MFI: median fluorescence intensity. BLItz: Bio-Layer interferometry (BLI) technology using HIS-tag identification tips. […] The higher the MFIR, the stronger the binding.

[4] = target: T2, CD33; assay: flow cytometry, MOLM-13 cells, anti-His-FITC detection, ratio to no bridge
Experimental: as §2

[5] = target: T1, nfP2X7 CAR 1; assay: flow cytometry, CAR T cells, anti-His-FITC, EGFR+ MFI over background 0.4
Method in brief: as §1

T2 sequence (P20138 18-364 limits assumed): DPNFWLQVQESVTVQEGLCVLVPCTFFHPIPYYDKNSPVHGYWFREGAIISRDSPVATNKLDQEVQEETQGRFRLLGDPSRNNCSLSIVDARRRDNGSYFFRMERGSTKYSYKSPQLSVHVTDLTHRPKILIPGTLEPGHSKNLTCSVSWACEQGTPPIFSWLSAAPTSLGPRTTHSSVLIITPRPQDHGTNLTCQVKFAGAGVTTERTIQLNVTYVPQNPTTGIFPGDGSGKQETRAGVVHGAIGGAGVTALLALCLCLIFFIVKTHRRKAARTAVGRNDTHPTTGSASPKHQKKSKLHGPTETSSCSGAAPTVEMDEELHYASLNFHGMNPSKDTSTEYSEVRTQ

Binder	MFI HisTag FITC in EGFR+ Population [1]	HisTag MFI Ratio of EGFR+/EGFR- [2]	MFI HisTag FITC [3]	MFIR HisTag FITC [4]	HisTag MFI Ratio (background 0.4) [5]
B1	1.63	3.3	6.29	9.39	4.1
B2	1.59	3.3	6.69	9.99	4
B3	1.65	3.3	6.72	10	4.1
B4	1.69	3.4	6.96	10.4	4.2
B5	1.31	3	6.98	10.4	3.3
B6	2.15	3.8	6.62	9.88	5.4
B7	1.34	3	7.09	10.6	3.4

Source: US20250281611A1 (BIOSCEPTRE AUST, published 2025)
